Assay [1] deals with MB114 cells. The assay can be described thus: angiogenic sprouting in rat tail collagen matrices. The class given is cell-based, murine. How it is done: (§1) The effect putative angiogenic agents had on MB114 cell activities were determined as follows: (i) cell proliferation using a [^3H]thymidine incorporation assay as described (Albig et al, 2006; Albig and Schiemann, 2004; Albig and Schiemann, 2005); (ii) cell invasion through Matrigel matrices using a modified Boyden-chamber assay as described (Albig et al, 2006; Albig and Schiemann, 2004; Albig and Schiemann, 2005); (iii) p38 MAPK phosphorylation using immunoblot analyses as described (Albig et al, 2006; Albig and Schiemann, 2004; Albig and Schiemann, 2005); (iv) angiogenic sprouting in rat tail collagen matrices as described (Albig et al, 2006; Albig and Schiemann, 2004); and (v) Hes1- and SBE-driven luciferase reporter gene assays as described (Albig et al, 2006; Albig and Schiemann, 2004; Albig and Schiemann, 2005).
Finally, it was determined whether expression of these putative angiogenic factors could effect the angiogenic sprouting of quiescent MB114 cells monolayers. MB114 cells expressing either GFP or various putative angiogenic agents were grown to confluency, and subsequently were overlaid with rat tail collagen matrices. Angiogenic sprouting by quiescent EC monolayers was stimulated by inclusion of 10% FBS and allowed to proceed for 5 days. The quantity of invading angiogenic sprouts was determined by manual counting under a light microscope.
Based on the findings described in the Examples above, the inventors hypothesized that MAGP-2 promotes angiogenesis by antagonizing Notch1 signaling. To test this hypothesis, it was first determined whether inhibiting Notch signaling in MB114 cells would enhance their angiogenic sprouting. In doing so, MB114 cells were transiently transfected with the Hes1-luciferase reporter gene (and pCMV-β-gal cDNA as control), and subsequently were treated overnight with or without the highly specific gamma-secretase inhibitor, DAPT (Sastre et al, 2001), which inhibits S3-mediated cleavage of Notch1 and, consequently, NICD-mediated induction of Hes1 expression. Afterward, luciferase and β-gal activities were determined. […] In this experiment, quiescent MB114 cell monolayers were overlaid with rat tail collagen matrices, and were induced to form angiogenic sprouts by addition of 10% FBS supplemented with or without DAPT (10 μM). Five days later the number of invading angiogenic spouts were quantified by manual counting on a light microscope. Based on these findings, the inventors conclude that Notch activation functions in mediating angiostasis in MB114 cells. […] Collectively, these findings indicate that Notch1 signaling antagonizes angiogenic sprouting in MB114 cells, and that downregulation of Notch1 signaling components is necessary for angiogenesis activation in MB114 cells.
Having shown that Notch1 signaling mediates angiostasis in MB114 cells, the inventors next asked whether MAGP-2 promotes angiogenesis in MB114 cells via its ability to antagonize Notch signaling. To do so, MAGP-2-expressing MB114 cells were engineered to constitutively express active Notch1 NICD fragment in an attempt to overcome the block of Notch processing mediated by MAGP-2. More particularly, GFP-, MAGP-2-, and MAGP-2/N1ICD-expressing MB114 cells were transiently transfected with pHes1-luciferase and pCMV-β-gal cDNAs. Luciferase and β-gal activities were determined 48 h post-transfection. As the inventors observed previously, MAGP-2 expression reduced Hes1-luciferase activity in MB114 cells (FIG. 5C), a reaction that was bypassed by co-expression of NICD in these cells (FIG. 5C). […] In this experiment, quiescent monolayers of GFP-, MAGP-2-, and MAGP-2/N1ICD-expressing MB114 cells were overlaid with rat tail collagen matrices and incubated in the absence or presence of 10% FBS for 5 days. Afterward, the number of invading angiogenic sprouts were determined by manual counting under a light microscope.

Assay [2] deals with Hes1 promoter (Notch1 signaling). The assay can be described thus: Hes1-driven luciferase reporter gene assay in MB114 cells. The class given is cell-based, murine. How it is done: as §1
MAGP-2 can interact physically with Notch1 and its ligand, Jagged-1 (Miyamoto et al, 2006; Nehring et al, 2005), resulting in the ectodomain shedding of both molecules from the cell surface. Notch signaling also plays an essential role in regulating normal vessel development and angiogenesis in mammals (Leong and Karsan, 2005; Shawber and Kitajewski, 2004). Given these two facts, the inventors hypothesized that MAGP-2 promotes angiogenesis by modulating Notch1 signaling. To test this hypothesis, first measured were changes in luciferase expression driven by a Hes1-luciferase reporter gene whose expression is induced by Notch1 activation (Iso et al, 2003). MB114 and HUVEC cells were transiently transfected either with pHes1-luciferase, pCMV-β-gal, and MAGP-2 cDNAs, or with pHes1-luciferase and pCMV-β-gal cDNAs and subsequently stimulated with rMAGP-2 (1 or 5 mg/ml). Afterward, luciferase and β-gal activities contained in detergent-solubilized cell extracts were measured. In addition, GFP- and MAGP-2-expressing MB114 cells were transiently transfected with pHes1-luciferase and pCMV-β-gal cDNAs, together with or without Jagged-1 cDNA as indicated. Afterward, luciferase and β-gal activities were measured as above.
To further investigate the impact of MAGP-2 on Notch1 processing and NICD accumulation, the inventors took advantage of recent findings showing that the ability of TGF-β to induce Hes1 promoter activity requires Smad3 to interact physically with NICD (Blokzijl et al, 2003), a reaction that is dispensable for canonical Smad3-mediated signaling stimulated by TGF-β (Blokzijl et al, 2003). It was therefore reasoned that the ability of MAGP-2 to inhibit NICD production in ECs would reduce the capacity of TGF-β to induce luciferase expression driven by the Hes1 promoter, but not that driven by the synthetic Smad2/3-binding element (SBE). GFP- and MAGP-2-expressing MB114 cells were transiently transfected with either pHes1- or pSBE-luciferase, both together with pCMV-β-gal as indicated in FIG. 4B. Afterward, the resulting transfectants were stimulated overnight with increasing concentrations of TGF-β1 (0-5 ng/ml).
Based on the findings described in the Examples above, the inventors hypothesized that MAGP-2 promotes angiogenesis by antagonizing Notch1 signaling. To test this hypothesis, it was first determined whether inhibiting Notch signaling in MB114 cells would enhance their angiogenic sprouting. […] Afterward, luciferase and β-gal activities were determined. […]
For orientation: Reporter assays use an easily measured gene product as a stand-in for the process of interest.

For assay [3] the test system is unchanged. Put plainly: Hes1-driven luciferase reporter gene assay in HUVEC cells. The class given is cell-based, human. Set-up: dose or concentration left out as unconfirmed. How it is done:
as §1
MAGP-2 can interact physically with Notch1 and its ligand, Jagged-1 (Miyamoto et al, 2006; Nehring et al, 2005), resulting in the ectodomain shedding of both molecules from the cell surface. […] To test this hypothesis, first measured were changes in luciferase expression driven by a Hes1-luciferase reporter gene whose expression is induced by Notch1 activation (Iso et al, 2003). […] Afterward, luciferase and β-gal activities contained in detergent-solubilized cell extracts were measured. […] Afterward, luciferase and β-gal activities were measured as above. […]

Entries after “also recorded” stand apart in the source; their conditions may differ.

B1: MAGP-2: secreted glycoprotein (25 kDa); stably expressed in MB114 cells by bicistronic retroviral transduction, Myc-His tagged (protein)
chain: QRGDDVPETFTDDPNLVNDPSTDDTALADITPSTDDLAGDKNATAECRDEKFACTRLYSVHRPVRQCVHQSCFTSLRRMYIINNEICSRLVCKEHEAMKDELCRQMAGLPPRRLRRSNYFRLPPCENMNLQRPDGL
modifications: left off: small tags and cut ends
notes: secreted glycoprotein (25 kDa); stably expressed in MB114 cells by bicistronic retroviral transduction, Myc-His tagged
Take B1: the “angiogenic sprouting of quiescent MB114 cell monolayers” value in assay [1] (MB114 cells stably expressing the transgene vs GFP, 10% FBS, 5 days) is listed as “significantly increased”. In assay [2] (MAGP-2-expressing vs GFP-expressing MB114 cells, with Jagged-1 cDNA), the “ability of Jagged-1 to induce Hes1-luciferase activity” value is recorded as “abrogated”. In addition, the “ability of TGF-β to stimulate Hes1-luciferase activity” value in assay [2] (MAGP-2-expressing vs GFP-expressing MB114 cells, TGF-β1 0-5 ng/ml overnight) is given as “significantly decreased”. The Hes1-driven luciferase activity entry in assay [2] (MAGP-2 expression in MB114 cells) is listed as “repressed; also recorded: reduced”; in assay [3] (MAGP-2 expression in HUVEC cells), “repressed”.

B2: rMAGP-2: recombinant FLAG-tagged MAGP-2 purified from bacterial cell extracts by anti-FLAG chromatography (protein, UniProt Q9QZJ6 29-164, looked up)
Microfibrillar-associated …: B1 chain
modifications: FLAG tag
notes: recombinant FLAG-tagged MAGP-2 purified from bacterial cell extracts by anti-FLAG chromatography
Consider B2, for which the “angiogenic sprouting of quiescent MB114 cell monolayers” value in assay [1] (purified recombinant protein added, 1 μg/ml) is “stimulated”. For the same molecule, the Hes1-driven luciferase activity result in assay [2] (MB114 cells stimulated with recombinant protein, 1 or 5 mg/ml) is reported as “repressed”; in assay [3] (HUVEC cells stimulated with recombinant protein), “repressed”.

The values above are taken from patent US8629107B2, “Genes and proteins associated with angiogenesis and uses thereof” (National Jewish Health, priority 2005, dated 2014).
